According to patent CN111320685A:
Several values for one entry are separate records, joined by “and”; a condition that tells them apart may be missing. Identical values can stand only once.

Columns and labels:
[1] = biological target: H7N9病毒 A/Anhui/1/2013 (血凝素HA on virus) (influenza A virus A/Anhui/1/2013 (H7N9)); experiment: cell-based or functional assay
[2] = biological target: H7N9病毒的HA蛋白(购自ACROBiosystems) (H7N9 influenza virus); experiment: ELISA, HA coated, supernatant of transfected 293F cells, anti-human IgG-HRP
[3] = biological target: H7N9病毒的HA蛋白(购自ACROBiosystems) (H7N9 influenza virus); experiment: BLI (PALL Fortebio), 3F12 captured on protein A sensor, HA antigen in solution

B1: 抗H7N9全人源单克隆抗体3F12 (antibody, V domains shown)
VH: QVQLVESGAEVKKPGASVKVSCKASGYIFNSYDINWVRQATGQGLEWMGWMTPDSGDNGFAQKFQGRVTMTRNTSITTAYMELSSLTSEDTAVYYCANGTADCSSGGSCYTWFDPWGQGTLVTVSS
VL: SSELTQDPAVSVALGQTVRITCQGDRALRSYYASWYQQKPGQAPVLVIYGKTNRPSGIPDRFSGSSSGNTASLTITGAQAEDEADYYCTSRDNSGYHLVFGGGTKLTVLV
In the case of B1, the 中和实验 IC50 (微量中和-ELISA, MDCK细胞) [1] is reported as 14.3 µg/mL, the OD 450nm [2] is reported as 2.31 OD450 and 2.78 OD450 and 2.06 OD450 and the Kd [3] is reported as 3.5 nM.
